Reference: patent US20250115669A1, “FGFR1/KLB Targeting Agonistic Antigen-Binding Proteins and Conjugates Thereof with GLP-1R Agonistic Peptides” (SANOFI, priority 2020, published 2025)

Legend:
[1] = biological target: cynomolgus monkey beta-Klotho; test: SPR binding affinity and kinetics to cynomolgus monkey beta-Klotho (Biacore 8K, anti-human Fc capture); parameters: species or system Cynomolgus monkey (Macaca fascicularis); settings: 1:1 binding model, read-out: KD monkey KLB
Description: Binding affinity and kinetics were measured on a Biacore 8K instrument (GE Healthcare). For the affinity capture of the diluted mAb sample, an anti-human Fc antibody (human antibody capture kit, GE Healthcare) was immobilized on all eight channels of a series S CM5 sensor chip (GE Healthcare) to approximately 10.000 RU. The anti-beta-Klotho antibodies were diluted into HBS-EP+ assay buffer (GE Healthcare) to 0.04 μg/mL. The antibodies were injected in the sample compartment, whereas the reference compartment was used without captured antibody. […] For the antigen inject the flow rate was adjusted to 60 μL/min with an association time of 180 sec and a dissociation time of 1800 sec. The maximum binding signal of beta-Klotho was in the range of 30 RU. At the end of each cycle an inject of regeneration solution, supplied with human antibody capture kit (GE Healthcare), supplemented with 10% non-specific binding reducer (GE Healthcare), for 1 min at 30 μL/min to remove antibody and antigen was performed. Binding kinetics data were evaluated with a 1:1 binding model using the Biacore 8K Evaluation Software version 1.1.1.7442 (GE Healthcare).
For interaction analysis with human beta-klotho, mAbs were captured via an anti-human Fc antibody immobilized on a series S CM5 sensor chip (human antibody capture kit, GE Healthcare). […] Binding kinetics data were evaluated with a 1:1 binding model using the Biacore 8K Evaluation Software version 1.1.1.7442 (GE Healthcare). For interaction analysis with Cynomolgus monkey beta-klotho, mAbs were captured via an anti-human Fc antibody immobilized on a series S CM5 sensor chip (human antibody capture kit, GE Healthcare). […] Binding kinetics data were evaluated with a 1:1 binding model using the Biacore 8K Evaluation Software version 1.1.1.7442 (GE Healthcare). Exemplary sensorgrams for the interaction are shown in FIG. 7 (human KLB) and 8 (monkey KLB), as well as in Table G.

[2] = Nano differential scanning fluorimetry (nanoDSF), Tonset and Tm; type: physicochemical
Description: Onset temperatures (Tonset) and melting points (Tm) of protein denaturation were determined using nano differential scanning fluorimetry (nanoDSF). Samples were diluted in formulation buffer to a final concentration of 0.5 mg/mL and loaded into nanoDSF capillaries in duplicates (Nanotemper Technologies). All measurements were done using a Prometheus NT.plex nanoDSF device (Nanotemper Technologies). Heating rate was 1° C. per minute from 20° C. to 95° C. Data were recorded using PR.ThermControl Software v2.3.1 (Nanotemper Technologies) and analyzed using PR.Stability Analysis Software v1.0.3 (Nanotemper Technologies).

[3] = Dynamic light scattering (DLS) and diffusion interaction parameter (kD); type: physicochemical
Description: Dynamic light scattering (DLS) was performed using a DynaPro Plate Reader (Wyatt Technology). The samples were measured in 384 well assay plates (Corning) at 25° C. Data were evaluated by cumulant fitting using Dynamics Software version 7.7.0.125 (Wyatt Technology).
Colloidal stability of the samples was assessed by measuring the diffusion interaction parameter (kD) at 20° C. using a DynaPro Plate Reader (Wyatt Technology). Before the measurements the samples were buffer exchanged against 5 L of 10 mmol/L Histidine pH 6.0 by dialysis for 20 h with one buffer change using 1 mL Float-A-Lyzer G2 devices with 3.5-5 kDa cut-off (Spectrum Labs). A dilution series from 1 to 4.5 mg/mL, in 0.5 mg/mL increments, was prepared in 10 mmol/L Histidine pH 6.0 and measured in 384 well assay plates (Corning).

[4] = Capillary isoelectric focusing (cIEF); type: physicochemical
Description: Charge heterogeneity of the antibody samples was determined by capillary isoelectric focusing (cIEF) using a Maurice C device (Protein Simple). The samples were prepared by the cIEF protocol given by the manufacturer with an ampholyte mix 3-10 (Protein Simple) and peptide pl markers of 5.85 and 9.0 (Protein Simple). cIEF runs were analyzed using Compass Software v2.1.0 (Protein Simple).

[5] = Intact mass spectrometry (IMS); type: physicochemical; settings: for intact mass Identity confirmed / intact mass Peak intensity post stress: 21 days
Description: Protein integrity was analyzed by LC-MS. […] Reversed phase (RP) chromatography was done using a PLRP-S 1000A 5 μm, 50×2.1 mm (Agilent) with a guard column PLRP-S 300A 5 μm, 3×5 mm (Agilent) at 200 μL/min and 80° C. column temperature. Eluents were buffer A containing LC water and 0.1% formic acid as well as buffer B containing 90% acetonitrile, 10% LC water and 0.1% formic acid. 1 μg of protein was injected onto the column and eluted using linear gradient from 0 to 17 minutes with increasing acetonitrile concentration. Data was analyzed using MassHunter Bioconfirm B.06 (Agilent). Molecular masses were calculated based on the amino acid sequences of the proteins using GPMAW software version 10 (Lighthouse data).

Ab0430: IgG1 NNAS; 16H7 VL (N25S, D49E, D50E, D91E, N93E); 16H7 VH (M34V, I83T, D109E); HC SEQ ID NO: 43, LC SEQ ID NO: 50
Kd [1]: 2.96 nM
Thermal stability DSF Tm [2]: 62 °C
Thermal stability DSF Tonset [2]: 45 °C
DSF Tm ([2]; pH 5, 40° C., d 21): 62 °C
DSF Tonset ([2]; pH 5, 40° C., d 21): 46 °C
DSF Tm ([2]; pH 5, d 0): 62 °C
DSF Tonset ([2]; pH 5, d 0): 45 °C
DSF Tm ([2]; pH 6, 40° C., d 21): 62 °C
DSF Tonset ([2]; pH 6, 40° C., d 21): 46 °C
DSF Tm ([2]; pH 6, d 0): 62 °C
DSF Tonset ([2]; pH 6, d 0): 45 °C
DSF Tm ([2]; pH 8, 40° C., d 21): 66 °C
DSF Tonset ([2]; pH 8, 40° C., d 21): 56 °C
DSF Tm ([2]; pH 8, d 0): 66 °C
DSF Tonset ([2]; pH 8, d 0): 56 °C
Homogeneity DLS Hydrodynamic radius [3]: 5.4 nm
DLS Hydrodynamic radius ([3]; pH 5, 40° C., d 21): 5.4 nm
DLS Hydrodynamic radius ([3]; pH 5, d 0): 5.4 nm
DLS Hydrodynamic radius ([3]; pH 6, 40° C., d 21): 5.4 nm
DLS Hydrodynamic radius ([3]; pH 6, d 0): 5.4 nm
DLS Hydrodynamic radius ([3]; pH 8, 40° C., d 21): 6.3 nm
DLS Hydrodynamic radius ([3]; pH 8, d 0): 5.4 nm
Charge homogeneity cIEF % main peak [4]: 21.7%
Charge homogeneity cIEF Number of peaks [4]: 8
Charge homogeneity cIEF pI [4]: 7.2-7.9
cIEF % Main peak ([4]; pH 5, 40° C., d 21): 21%
cIEF Number of peaks ([4]; pH 5, 40° C., d 21): 8
cIEF % Main peak ([4]; pH 5, d 0): 22%
cIEF Number of peaks ([4]; pH 5, d 0): 9
cIEF % Main peak ([4]; pH 6, 40° C., d 21): 20%
cIEF Number of peaks ([4]; pH 6, 40° C., d 21): 9
cIEF % Main peak ([4]; pH 6, d 0): 22%
cIEF Number of peaks ([4]; pH 6, d 0): 8
cIEF % Main peak ([4]; pH 8, 40° C., d 21): 4.4%
cIEF Number of peaks ([4]; pH 8, 40° C., d 21): 11
cIEF % Main peak ([4]; pH 8, d 0): 22%
cIEF Number of peaks ([4]; pH 8, d 0): 9
Identity, correct pairing, intact mass, Identity confirmed [5]: Yes
intact mass Identity confirmed ([5]; pH 5, 40° C.): Yes
intact mass Peak intensity post stress ([5]; pH 5, 40° C.): 80%
intact mass Identity confirmed ([5]; pH 6, 40° C.): Yes
intact mass Peak intensity post stress ([5]; pH 6, 40° C.): 81%
intact mass Identity confirmed ([5]; pH 8, 40° C.): Yes
intact mass Peak intensity post stress ([5]; pH 8, 40° C.): 54%

Ab0331: IgG4 PE; 16H7 VL (N25S, D49S, D50E, D91E, N93E); 16H7 VH (M34V, I83T, D109E); HC SEQ ID NO: 38, LC SEQ ID NO: 45
Kd [1]: 3.49 nM
Thermal stability DSF Tm [2]: 63 °C
Thermal stability DSF Tonset [2]: 53 °C
DSF Tm ([2]; pH 5, 40° C., d 21): 61 °C
DSF Tonset ([2]; pH 5, 40° C., d 21): 44 °C
DSF Tm ([2]; pH 5, d 0): 61 °C
DSF Tonset ([2]; pH 5, d 0): 54 °C
DSF Tm ([2]; pH 6, 40° C., d 21): 62 °C
DSF Tonset ([2]; pH 6, 40° C., d 21): 50 °C
DSF Tm ([2]; pH 6, d 0): 63 °C
DSF Tonset ([2]; pH 6, d 0): 53 °C
DSF Tm ([2]; pH 8, 40° C., d 21): 67 °C
DSF Tonset ([2]; pH 8, 40° C., d 21): 57 °C
DSF Tm ([2]; pH 8, d 0): 68 °C
DSF Tonset ([2]; pH 8, d 0): 58 °C
Homogeneity DLS Hydrodynamic radius [3]: 5.3 nm
DLS Hydrodynamic radius ([3]; pH 5, 40° C., d 21): 5.3 nm
DLS Hydrodynamic radius ([3]; pH 5, d 0): 5.5 nm
DLS Hydrodynamic radius ([3]; pH 6, 40° C., d 21): 5.2 nm
DLS Hydrodynamic radius ([3]; pH 6, d 0): 5 nm
DLS Hydrodynamic radius ([3]; pH 8, 40° C., d 21): 5.9 nm
DLS Hydrodynamic radius ([3]; pH 8, d 0): 5.6 nm
Charge homogeneity cIEF % main peak [4]: 73%
Charge homogeneity cIEF Number of peaks [4]: 5
Charge homogeneity cIEF pI [4]: 6.9
cIEF % Main peak ([4]; pH 5, 40° C., d 21): 59%
cIEF Number of peaks ([4]; pH 5, 40° C., d 21): 5
cIEF % Main peak ([4]; pH 5, d 0): 73%
cIEF Number of peaks ([4]; pH 5, d 0): 5
cIEF % Main peak ([4]; pH 6, 40° C., d 21): 57%
cIEF Number of peaks ([4]; pH 6, 40° C., d 21): 4
cIEF % Main peak ([4]; pH 6, d 0): 73%
cIEF Number of peaks ([4]; pH 6, d 0): 5
cIEF % Main peak ([4]; pH 8, 40° C., d 21): 14%
cIEF Number of peaks ([4]; pH 8, 40° C., d 21): 6
cIEF % Main peak ([4]; pH 8, d 0): 72%
cIEF Number of peaks ([4]; pH 8, d 0): 5
Identity, correct pairing, intact mass, Identity confirmed [5]: Yes
intact mass Identity confirmed ([5]; pH 5, 40° C.): Yes
intact mass Peak intensity post stress ([5]; pH 5, 40° C.): 84%
intact mass Identity confirmed ([5]; pH 6, 40° C.): Yes
intact mass Peak intensity post stress ([5]; pH 6, 40° C.): 97%
intact mass Identity confirmed ([5]; pH 8, 40° C.): Yes
intact mass Peak intensity post stress ([5]; pH 8, 40° C.): 75%

Ab0351: IgG4 PE; 16H7 VL (N25S, D49E, D50E, D91E, N93E); 16H7 VH (M34V, I83T, D109E); HC SEQ ID NO: 40, LC SEQ ID NO: 47
Thermal stability DSF Tm [2]: 62 °C
Thermal stability DSF Tonset [2]: 53 °C
DSF Tm ([2]; pH 5, 40° C., d 21): 61 °C
DSF Tonset ([2]; pH 5, 40° C., d 21): 45 °C
DSF Tm ([2]; pH 5, d 0): 61 °C
DSF Tonset ([2]; pH 5, d 0): 50 °C
DSF Tm ([2]; pH 6, 40° C., d 21): 62 °C
DSF Tonset ([2]; pH 6, 40° C., d 21): 52 °C
DSF Tm ([2]; pH 6, d 0): 62 °C
DSF Tonset ([2]; pH 6, d 0): 53 °C
DSF Tm ([2]; pH 8, 40° C., d 21): 66 °C
DSF Tonset ([2]; pH 8, 40° C., d 21): 57 °C
DSF Tm ([2]; pH 8, d 0): 66 °C
DSF Tonset ([2]; pH 8, d 0): 58 °C
Homogeneity DLS Hydrodynamic radius [3]: 5.3 nm
DLS Hydrodynamic radius ([3]; pH 5, 40° C., d 21): 5.6 nm
DLS Hydrodynamic radius ([3]; pH 5, d 0): 5.4 nm
DLS Hydrodynamic radius ([3]; pH 6, 40° C., d 21): 5.2 nm
DLS Hydrodynamic radius ([3]; pH 6, d 0): 5.2 nm
DLS Hydrodynamic radius ([3]; pH 8, 40° C., d 21): 8.1 nm
DLS Hydrodynamic radius ([3]; pH 8, d 0): 5.6 nm
Charge homogeneity cIEF % main peak [4]: 72.6%
Charge homogeneity cIEF Number of peaks [4]: 4
Charge homogeneity cIEF pI [4]: 6.7
cIEF % Main peak ([4]; pH 5, 40° C., d 21): 59%
cIEF Number of peaks ([4]; pH 5, 40° C., d 21): 5
cIEF % Main peak ([4]; pH 5, d 0): 72%
cIEF Number of peaks ([4]; pH 5, d 0): 4
cIEF % Main peak ([4]; pH 6, 40° C., d 21): 58%
cIEF Number of peaks ([4]; pH 6, 40° C., d 21): 4
cIEF % Main peak ([4]; pH 6, d 0): 73%
cIEF Number of peaks ([4]; pH 6, d 0): 4
cIEF % Main peak ([4]; pH 8, 40° C., d 21): 15%
cIEF Number of peaks ([4]; pH 8, 40° C., d 21): 5
cIEF % Main peak ([4]; pH 8, d 0): 71%
cIEF Number of peaks ([4]; pH 8, d 0): 4
Identity, correct pairing, intact mass, Identity confirmed [5]: Yes
intact mass Identity confirmed ([5]; pH 5, 40° C.): Yes
intact mass Peak intensity post stress ([5]; pH 5, 40° C.): 90%
intact mass Identity confirmed ([5]; pH 6, 40° C.): Yes
intact mass Peak intensity post stress ([5]; pH 6, 40° C.): 96%
intact mass Identity confirmed ([5]; pH 8, 40° C.): Yes
intact mass Peak intensity post stress ([5]; pH 8, 40° C.): 77%

16H7: anti FGFR1c/KLB monoclonal antibody of WO 2011/071783, IgG2 backbone; HC SEQ ID NO: 1, LC SEQ ID NO: 2 [Ab 16H7]
Kd [1]: 0.428 nM
